The values below come from doi:10.1101/340026.

Read-outs that look alike come from different tables or passages of the source.

The target in test [1] is soluble porcine αβ-tubulin (porcine) (UniProt P02550). The test can be described thus: SEC + SEC-MALS.
Test [2] has the same target. As to the kind of experiment: ITC.
The target of test [3] is αβ-tubulin:DRP complex (1:1 molar ratio) (porcine) (UniProt P02550). As to the kind of experiment: ITC. In general terms: Isothermal titration calorimetry measures the heat released or taken up as one component is titrated into another.
Test [4] shares this target. As to the kind of experiment: ITC. This is another data set of the same source.
Test [5] deals with soluble porcine αβ-tubulin (porcine) (UniProt P02550). As to the kind of experiment: SEC + SEC-MALS. This is another data set of the same source. A general note: SEC sorts molecules by how far they enter the pores of the column.

For orientation: stoichiometry N means the number of molecules, sites or subunits per partner or assembly. Broadly, the Kd is the constant that tells how readily two partners part at equilibrium. For the molecule “designer ankyrin repeat protein, Darpin-D1 (DRP) (designed binder)”, the stoichiometry N in test [1] stood at 1. This molecule also registered a Kd in test [2] of 0.149 µM.

Regarding “DRP with the N-terminal ankyrin repeat removed (DRPΔN) (designed binder)”, the Kd in test [2] was 0.461 µM.

B1: isolated TOG1 (residues 1-270) (domain or fragment)
chain: MSQDQEEDYSKLPLESRIVHKVWKVRLSAYEECSKSFSLSADGSDNCFELWNNQSELWKSVLTDSNVAAQEAGTAAFVAYCRFSDPSHLLKAREISVLSISEKCLTSPRAGTRENALEALMLLVEADSAAPVIESIIPSLSARSPKVIASNVAAIASLVEQFGAKVIPSKMIIPHISNLFGHADKNVRKEASRLTVNIYRWTGDPLKDLLFKDLRPVQTKELESLFAELPTEPPKQTRFLKSQQPTSEPNVETQVEEQPALENEESEPEP
With B1, the figures for the Kd in test [3] and in test [4] were 0.07 µM and 1.5 µM, respectively.

B2: dimeric S. pombe Alp14 TOG array (residues 1-690) (domain or fragment)
chain: MSQDQEEDYSKLPLESRIVHKVWKVRLSAYEECSKSFSLSADGSDNCFELWNNQSELWKSVLTDSNVAAQEAGTAAFVAYCRFSDPSHLLKAREISVLSISEKCLTSPRAGTRENALEALMLLVEADSAAPVIESIIPSLSARSPKVIASNVAAIASLVEQFGAKVIPSKMIIPHISNLFGHADKNVRKEASRLTVNIYRWTGDPLKDLLFKDLRPVQTKELESLFAELPTEPPKQTRFLKSQQPTSEPNVETQVEEQPALENEESEPEPSDDQFDLVEEVDVLPNVDPNLETLMASSKWKDRKEALDKLLPVLSQPKIKDNDFFNLVAILTKSVSKDANIMVVINAAHCIQAMAKGLRSNFSKYASTSINALLERSKEKKANVIESLSSAMDAVLATSSLDDLAELIASFAGNKNPQIKSSCFSLFSRSFSNMTSLPSKFTVDTCAKACVPGVSDTFEPVRSAAAEALGVLMKLVGERAINQYLSPLDDIRKSKIRSFYETATVKAKAPTKKSKVKPSKQEESKVVVPSNAKAVKKSVVPSSPVVPSPRKATNKSLSMDVSKGNAFENGPLLPRPTTRPVSRGLSRGTSSSLQQKVKASTPLNSGALNETVQNLKNMELDDPAPQPAKHSRVDRYEHPKVLEDNDSTISSLESLKRENEELREQLKVEHEENISMQKQLSELKGELNTL
Turning to B2, the stoichiometry N in test [1] and in test [5] was 4 throughout.

B3: monomeric S. pombe Alp14 TOG1-TOG2 array (residues 1-510) (domain or fragment)
chain: MSQDQEEDYSKLPLESRIVHKVWKVRLSAYEECSKSFSLSADGSDNCFELWNNQSELWKSVLTDSNVAAQEAGTAAFVAYCRFSDPSHLLKAREISVLSISEKCLTSPRAGTRENALEALMLLVEADSAAPVIESIIPSLSARSPKVIASNVAAIASLVEQFGAKVIPSKMIIPHISNLFGHADKNVRKEASRLTVNIYRWTGDPLKDLLFKDLRPVQTKELESLFAELPTEPPKQTRFLKSQQPTSEPNVETQVEEQPALENEESEPEPSDDQFDLVEEVDVLPNVDPNLETLMASSKWKDRKEALDKLLPVLSQPKIKDNDFFNLVAILTKSVSKDANIMVVINAAHCIQAMAKGLRSNFSKYASTSINALLERSKEKKANVIESLSSAMDAVLATSSLDDLAELIASFAGNKNPQIKSSCFSLFSRSFSNMTSLPSKFTVDTCAKACVPGVSDTFEPVRSAAAEALGVLMKLVGERAINQYLSPLDDIRKSKIRSFYETATVKAKAP
Take B3: the stoichiometry N in test [1] and in test [5] was 2 each time.

B4: isolated TOG2 (residues 320-510) (domain or fragment)
chain: KDNDFFNLVAILTKSVSKDANIMVVINAAHCIQAMAKGLRSNFSKYASTSINALLERSKEKKANVIESLSSAMDAVLATSSLDDLAELIASFAGNKNPQIKSSCFSLFSRSFSNMTSLPSKFTVDTCAKACVPGVSDTFEPVRSAAAEALGVLMKLVGERAINQYLSPLDDIRKSKIRSFYETATVKAKAP
For B4, the Kd in test [3] turned out to be 0.173 µM; in test [4], 3.25 µM.
